Reference: US10093706
Read-outs that look alike come from different tables or passages of the source.

Experiments:
[1] = target: hnRNP-E1(C293S) (Homo sapiens) (UniProt Q15365); conditions: no L-homocysteine; Scatchard
[2] = target: hnRNP-E1 (PCBP1) wild-type (Homo sapiens) (UniProt Q15365); conditions: Scatchard
[3] = target: hnRNP-E1(G292A) G292A (Homo sapiens) (UniProt Q15365); conditions: no L-homocysteine; Scatchard
Chain of hnRNP-E1(G292A) G292A (Homo sapiens) (Q15365 whole entry A205V/G292A): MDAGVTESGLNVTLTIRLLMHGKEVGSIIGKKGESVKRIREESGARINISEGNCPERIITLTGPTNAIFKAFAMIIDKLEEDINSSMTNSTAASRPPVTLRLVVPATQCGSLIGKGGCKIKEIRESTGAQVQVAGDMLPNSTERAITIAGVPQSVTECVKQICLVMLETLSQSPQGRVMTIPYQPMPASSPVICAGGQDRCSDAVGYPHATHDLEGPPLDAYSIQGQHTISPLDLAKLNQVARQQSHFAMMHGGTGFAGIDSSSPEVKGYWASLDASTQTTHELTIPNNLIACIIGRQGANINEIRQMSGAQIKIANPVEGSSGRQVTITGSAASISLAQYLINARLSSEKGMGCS

Chain of hnRNP-E1 (PCBP1) wild-type (Homo sapiens) (Q15365 whole entry A205V): as the sequence (Q15365 whole entry A205V/G292A) above, with A292G counted along it
Chain of hnRNP-E1(C293S) (Homo sapiens) (Q15365 whole entry A205V/C293S): as the sequence (Q15365 whole entry A205V/G292A) above, with A292G, C293S counted along it

Substance “18-nt folate receptor-alpha mRNA cis-element” has a Kd [1] of 0.27 nM, a Kd ([2]; 10 uM L-homocysteine) of 0.89 nM and a Kd ([2]; 50 uM L-homocysteine) of 0.47 nM. The Kd ([2]; no L-homocysteine) was 1.47 nM and the Kd [3] was 1.57 nM.
